This experiment concerns the target T1, SARS-CoV-2 WT (Wuhan-1) receptor binding domain (SARS-CoV-2, Wuhan-Hu-1, UniProt P0DTC2, biotin (EZ-Link Sulfo-NHS-LC-Biotin, average of four biotins per RBD molecule)).
T1 construct: source: bought: Acro Biosystems (Cat #SPD-C52H3)
Description: BLI. The following applies: both partners purified.

For orientation: Kd means the free concentration of one partner at which half of the binding sites on the other are occupied at equilibrium, for simple one-to-one binding. The low end stands for higher affinity, the high end for lower affinity.

B1: ADI-81654 (Fab, V domains shown)
VH: QVQLKQSGPTLVKPTQTLTLTCTFSGFSLSTYGVGVGWIRQPPGKALEWLALIYYDDDKRYSPSLKSRLTITKDTSQNQVVLTMTNMDPVDTATYYCARHTIATIFDFDSWGQGTLVTVSS
VL: QSVLTQPASVSGSPGQSITISCTGTSSDVGGHNYVSWYQQHPGKAPKLMIYEVSNRPSGVSNRFSGSKSGNTASLTISGLQAEDEADYSCSSYASSTSPVVFGGVTKLTVL
On to B1, for which the Kd was 56 nM.

(Values after paper PMC10180619 (Nature Communications, 2023).)
